According to patent US20060258000A1, “Use of steady-state oxygen gradients to modulate animal cell functions” (priority 2003, published 2006):

Protocol for CYP2B: Primary rat hepatocytes from 6-well plates or chamber slides were lysed and scraped in SDS buffered (10 mM Tris/HCl (ph 7.4), 0.1% SDS). Samples were added to microcentrifuge tubes with 5 μl of PMSF, homogenized with a pestle, and centrifuged at 16,200 g for 5 minutes. Total protein content in the supernatant was determined using the DC protein assay (Bio-Rad, Hercules, Calif.) and used to normalize sample loading. Samples prepared in sample buffer were loaded (10-20 μg/well) for electrophoresis on a 10% polyacrylamide gel. After overnight transfer on to a PVDF membrane, blots were incubated with a blocking buffered (20 mM Tris-Cl (pH 7.4), 500 mM NaCl, 0.1% Tween 20, and 5% (w/v) milk powder) and washed with buffer without milk powder, incubation for 1 h with primary antibody against rat PEPCK or rat CYP2B (Genset, Woburn, Mass.) was followed by washing and incubation with either anti-sheep (PEPCK) or anti-goat (CYP2B) HRP-conjugated secondary antibody for 45 minutes. After washing, the Pierce SuperSignal chemiluminescence reagent was used for detection. All electrophoresis gels were run with molecular mass markers to verify PEPCK bands (67 kDa) or CYP2B1/2 bands (56 kDa). Optical density measurements were obtained using scanned blot images with 1d gelscan software (Metamorph).

B1: epidermal growth factor (protein, UniProt P01133 23-1207, looked up)
Pro-epidermal growth factor: PQHWSCPEGTLAGNGNSTCVGPAPFLIFSHGNSIFRIDTEGTNYEQLVVDAGVSVIMDFHYNEKRIYWVDLERQLLQRVFLNGSRQERVCNIEKNVSGMAINWINEEVIWSNQQEGIITVTDMKGNNSHILLSALKYPANVAVDPVERFIFWSSEVAGSLYRADLDGVGVKALLETSEKITAVSLDVLDKRLFWIQYNREGSNSLICSCDYDGGSVHISKHPTQHNLFAMSLFGDRIFYSTWKMKTIWIANKHTGKDMVRINLHSSFVPLGELKVVHPLAQPKAEDDTWEPEQKLCKLRKGNCSSTVCGQDLQSHLCMCAEGYALSRDRKYCEDVNECAFWNHGCTLGCKNTPGSYYCTCPVGFVLLPDGKRCHQLVSCPRNVSECSHDCVLTSEGPLCFCPEGSVLERDGKTCSGCSSPDNGGCSQLCVPLSPVSWECDCFPGYDLQLDEKSCAASGPQPFLLFANSQDIRHMHFDGTDYGTLLSQQMGMVYALDHDPVENKIYFAHTALKWIERANMDGSQRERLIEEGVDVPEGLAVDWIGRRFYWTDRGKSLIGRSDLNGKRSKIITKENISQPRGIAVHPMAKRLFWTDTGINPRIESSSLQGLGRLVIASSDLIWPSGITIDFLTDKLYWCDAKQSVIEMANLDGSKRRRLTQNDVGHPFAVAVFEDYVWFSDWAMPSVMRVNKRTGKDRVRLQGSMLKPSSLVVVHPLAKPGADPCLYQNGGCEHICKKRLGTAWCSCREGFMKASDGKTCLALDGHQLLAGGEVDLKNQVTPLDILSKTRVSEDNITESQHMLVAEIMVSDQDDCAPVGCSMYARCISEGEDATCQCLKGFAGDGKLCSDIDECEMGVPVCPPASSKCINTEGGYVCRCSEGYQGDGIHCLDIDECQLGEHSCGENASCTNTEGGYTCMCAGRLSEPGLICPDSTPPPHLREDDHHYSVRNSDSECPLSHDGYCLHDGVCMYIEALDKYACNCVVGYIGERCQYRDLKWWELRHAGHGQQQKVIVVAVCVVVLVMLLLLSLWGAHYYRTQKLLSKNPKNPYEESSRDVRSRRPADTEDGMSSCPQPWFVVIKEHQDLKNGGQPVAGEDGQAADGSMQPTSWRQEPQLCGMGTEQGCWIPVSSDKGSCPQVMERSFHMPSYGTQTLEGGVEKPHSLLSANPLWQQRALDPPHQMELTQ
modifications: Pro-epidermal growth factor
- Effect of EGF on DEX-induced CYP3A induction (CYP3A): remained uniform
- Effect of EGF on DEX-induced CYP2B spatial distribution (CYP2B): significant shift in CYP2B spatial distribution was noted from inlet regions to the outlet
